Data as given in US20180072786A1.
Ends that are not written are not given here.

Molecular target: mixture of biotinylated D-enantiomeric Aβ1-42 oligomers and fibrils (UniProt P05067)
Experiment: monoclonal phage ELISA, A450; signal on immobilized oligomers/fibrils (normalized by the 6E10 control) against signal on monomers set to 100%

mixture of biotinylated D-enantiomeric Aβ1-42 oligomers and fibrils, sequence (P05067 672-713 limits assumed, form in doubt): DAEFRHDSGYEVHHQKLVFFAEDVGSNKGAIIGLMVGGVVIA

Binder | Difference in signal strength between Aβ1-42 monomers (100%) and Aβ1-42 oligomers and fibrils [%]
VHWDFRQWWQPS (peptide, not shown: large carriers, not fully specified) [individual phage clone 6.167 (Mosd20)] | 45.7
FSWSMVMPWPTA (peptide, not shown: large carriers, not fully specified) [individual phage clone 6.135 (Mosd21)] | 46
YSYLTSYHMVWR (peptide, not shown: large carriers, not fully specified) [individual phage clone 5.60, which contains the peptide sequence of Mosd1] | 72
DRSKGDHRITQM (peptide, not shown: large carriers, not fully specified) [individual phage clone 6.257 (Mosd18)] | 49.2
HNWSWEWWYNPN (peptide, not shown: large carriers, not fully specified) [individual phage clone 6.216 (Mosd5)] | 62.7
STLHFYTAFLNK (peptide, not shown: large carriers, not fully specified) [individual phage clone 6.249 (Mosd6)] | 68
HTWTTYDYVWRL (peptide, not shown: large carriers, not fully specified) [individual phage clone 5.80 (Mosd2)] | 67.1
VHWDFRQWWQQS (peptide, not shown: large carriers, not fully specified) [individual phage clone 6.141 (Mosd12)] | 59
DWSSRVYRDPQT (peptide, not shown: large carriers, not fully specified) [individual phage clone 6.139 (Mosd16)] | 52.4
DLRFSSLWKLSH (peptide, not shown: large carriers, not fully specified) [individual phage clone 6.190 (Mosd19)] | 50.3
HFWSWTSLSMTR (peptide, not shown: large carriers, not fully specified) [individual phage clone 6.227 (Mosd8)] | 68.6
GQWDFRQWWQPC (peptide, not shown: large carriers, not fully specified) [individual phage clone 6.255 (Mosd15)] | 60
YSFHFEMNMGNY (peptide, not shown: large carriers, not fully specified) [individual phage clone 6.113 (Mosd13)] | 57.2
HTWTHWFSWNVP (peptide, not shown: large carriers, not fully specified) [individual phage clone 6.242 (Mosd10)] | 71.9
LSMNITTVHRWH (peptide, not shown: large carriers, not fully specified) [individual phage clone 6.245 (Mosd11)] | 57.7
GTMLKFSGMNLT (peptide, not shown: large carriers, not fully specified) [individual phage clone 5.57 (Mosd3)] | 60
HLSWYWEKYLTS (peptide, not shown: large carriers, not fully specified) [individual phage clone 6.239 (Mosd9)] | 68
FSHSHHTWFTWN (peptide, not shown: large carriers, not fully specified) [individual phage clone 6.247 (Mosd7)] | 58
ERSQWGHRDPQS (peptide, not shown: large carriers, not fully specified) [individual phage clone 6.240 (Mosd17)] | 54.5
EHWDFGQWWQQS (peptide, not shown: large carriers, not fully specified) [individual phage clone 6.197 (Mosd14)] | 56.5
HNWFYWTTEPYD (peptide, not shown: large carriers, not fully specified) [individual phage clone 5.81 (Mosd4)] | 69.2
